# In IntAct's records for PubMed 20080774:
# B1: Nuclear factor of activated T-cells 5 (Homo sapiens), O94916-1 (parent)
# chain: MPSDFISLLSADLDLESPKSLYSRESVYDLLPKELQLPPSRETSVASMSQTSGGEAGSPPPAVVAADASSAPSSSSMGGACSSFTTSSSPTIYSTSVTDSKAMQVESCSSAVGVSNRGVSEKQLTSNTVQQHPSTPKRHTVLYISPPPEDLLDNSRMSCQDEGCGLESEQSCSMWMEDSPSNFSNMSTSSYNDNTEVPRKSRKRNPKQRPGVKRRDCEESNMDIFDADSAKAPHYVLSQLTTDNKGNSKAGNGTLENQKGTGVKKSPMLCGQYPVKSEGKELKIVVQPETQHRARYLTEGSRGSVKDRTQQGFPTVKLEGHNEPVVLQVFVGNDSGRVKPHGFYQACRVTGRNTTPCKEVDIEGTTVIEVGLDPSNNMTLAVDCVGILKLRNADVEARIGIAGSKKKSTRARLVFRVNIMRKDGSTLTLQTPSSPILCTQPAGVPEILKKSLHSCSVKGEEEVFLIGKNFLKGTKVIFQENVSDENSWKSEAEIDMELFHQNHLIVKVPPYHDQHITLPVSVGIYVVTNAGRSHDVQPFTYTPDPAAAGALNVNVKKEISSPARPCSFEEAMKAMKTTGCNLDKVNIIPNALMTPLIPSSMIKSEDVTPMEVTAEKRSSTIFKTTKSVGSTQQTLENISNIAGNGSFSSPSSSHLPSENEKQQQIQPKAYNPETLTTIQTQDISQPGTFPAVSASSQLPNSDALLQQATQFQTRETQSREILQSDGTVVNLSQLTEASQQQQQSPLQEQAQTLQQQISSNIFPSPNSVSQLQNTIQQLQAGSFTGSTASGSSGSVDLVQQVLEAQQQLSSVLFSAPDGNENVQEQLSADIFQQVSQIQSGVSPGMFSSTEPTVHTRPDNLLPGRAESVHPQSENTLSNQQQQQQQQQQVMESSAAMVMEMQQSICQAAAQIQSELFPSTASANGNLQQSPVYQQTSHMMSALSTNEDMQMQCELFSSPPAVSGNETSTTTTQQVATPGTTMFQTSSSGDGEETGTQAKQIQNSVFQTMVQMQHSGDNQPQVNLFSSTKSMMSVQNSGTQQQGNGLFQQGNEMMSLQSGNFLQQSSHSQAQLFHPQNPIADAQNLSQETQGSLFHSPNPIVHSQTSTTSSEQMQPPMFHSQSTIAVLQGSSVPQDQQSTNIFLSQSPMNNLQTNTVAQEAFFAAPNSISPLQSTSNSEQQAAFQQQAPISHIQTPMLSQEQAQPPQQGLFQPQVALGSLPPNPMPQSQQGTMFQSQHSIVAMQSNSPSQEQQQQQQQQQQQQQQQQQSILFSNQNTMATMASPKQPPPNMIFNPNQNPMANQEQQNQSIFHQQSNMAPMNQEQQPMQFQSQSTVSSLQNPGPTQSESSQTPLFHSSPQIQLVQGSPSSQEQQVTLFLSPASMSALQTSINQQDMQQSPLYSPQNNMPGIQGATSSPQPQATLFHNTAGGTMNQLQNSPGSSQQTSGMFLFGIQNNCSQLLTSGPATLPDQLMAISQPGQPQNEGQPPVTTLLSQQMPENSPLASSINTNQNIEKIDLLVSLQNQGNNLTGSF
# partner: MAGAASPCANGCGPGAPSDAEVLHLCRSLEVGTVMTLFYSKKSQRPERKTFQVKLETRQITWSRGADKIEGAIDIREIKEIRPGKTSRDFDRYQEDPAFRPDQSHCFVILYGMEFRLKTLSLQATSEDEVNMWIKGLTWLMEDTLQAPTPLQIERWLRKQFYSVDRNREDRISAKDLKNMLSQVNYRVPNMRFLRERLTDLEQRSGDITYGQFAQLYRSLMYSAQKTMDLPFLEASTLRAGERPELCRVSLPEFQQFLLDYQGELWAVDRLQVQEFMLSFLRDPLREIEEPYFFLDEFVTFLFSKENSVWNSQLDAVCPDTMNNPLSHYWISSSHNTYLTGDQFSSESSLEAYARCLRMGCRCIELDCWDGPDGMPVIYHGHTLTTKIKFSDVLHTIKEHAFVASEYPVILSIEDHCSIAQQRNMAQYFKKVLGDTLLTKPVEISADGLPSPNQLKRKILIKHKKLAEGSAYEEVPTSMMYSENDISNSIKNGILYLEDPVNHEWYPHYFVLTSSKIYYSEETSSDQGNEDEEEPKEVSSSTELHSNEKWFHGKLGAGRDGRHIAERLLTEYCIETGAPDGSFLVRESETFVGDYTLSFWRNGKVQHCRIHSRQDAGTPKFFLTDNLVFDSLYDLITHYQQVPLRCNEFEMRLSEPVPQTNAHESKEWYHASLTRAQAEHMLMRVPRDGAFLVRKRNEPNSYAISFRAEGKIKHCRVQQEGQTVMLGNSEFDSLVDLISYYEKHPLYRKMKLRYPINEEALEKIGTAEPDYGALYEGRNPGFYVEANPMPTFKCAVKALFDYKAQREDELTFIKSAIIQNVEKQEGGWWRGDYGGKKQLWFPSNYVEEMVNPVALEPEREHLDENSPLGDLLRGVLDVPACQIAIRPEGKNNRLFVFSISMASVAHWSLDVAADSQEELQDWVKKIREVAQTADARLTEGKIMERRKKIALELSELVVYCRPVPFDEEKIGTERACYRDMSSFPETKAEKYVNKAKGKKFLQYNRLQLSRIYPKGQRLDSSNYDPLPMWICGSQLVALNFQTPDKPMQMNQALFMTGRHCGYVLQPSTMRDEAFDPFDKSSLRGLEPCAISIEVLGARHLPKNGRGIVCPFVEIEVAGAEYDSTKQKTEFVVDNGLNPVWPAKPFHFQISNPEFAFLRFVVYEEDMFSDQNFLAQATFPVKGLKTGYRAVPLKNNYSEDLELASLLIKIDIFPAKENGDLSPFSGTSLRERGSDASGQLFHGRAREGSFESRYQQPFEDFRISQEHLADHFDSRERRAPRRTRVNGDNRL
# Variants of: B1
# Conditions: with plcg1_human PLCG1, P19174
row,effect of a mutation on the interaction,Variant
1,decreasing interaction,Y143A
